B1: In3E3 5' truncation 14 nt (ssRNA)
RNA: AGCCGGACUUGCCU
modifications: 2'-OMe all, PS all
B2: In3E3 both-end truncation 8 nt (ssRNA)
RNA: AGCCGGAC
modifications: 2'-OMe all, PS all [2'-OMe at 1-8 (all); PS at all linkages]
B3: LSA_In3E3 (ssRNA)
RNA: CCAGUGAGCCGGACUUGCCU
modifications: 2'-OMe all, PS all
B4: In3E3 5' truncation 19 nt (ssRNA)
RNA: CAGUGAGCCGGACUUGCCU
modifications: 2'-OMe all, PS all
B5: In3E3 5' truncation 17 nt (ssRNA)
RNA: GUGAGCCGGACUUGCCU
modifications: 2'-OMe all, PS all
B6: In3E3 3' truncation 13 nt (ssRNA)
RNA: CCAGUGAGCCGGA
modifications: 2'-OMe all, PS all
B7: In3E3 5' truncation 16 nt (ssRNA)
RNA: UGAGCCGGACUUGCCU
modifications: 2'-OMe all, PS all
B8: Open_L_1 (ssRNA)
RNA: CACGUACCUUAGUGCCUCAC
modifications: 2'-OMe all, PS all
B9: LSA_In3E3_CT5 (ssRNA)
RNA: CGCGUCACUCGCACUCGCCU
modifications: 2'-OMe all, PS all
B10: In3E3 5' truncation 15 nt (ssRNA)
RNA: GAGCCGGACUUGCCU
modifications: 2'-OMe all, PS all
B11: In3E3 both-end truncation 16 nt (ssRNA)
RNA: AGUGAGCCGGACUUGC
modifications: 2'-OMe all, PS all
B12: In3E3 5' truncation 10 nt (ssRNA)
RNA: GGACUUGCCU
modifications: 2'-OMe all, PS all
B13: In3E3 both-end truncation 12 nt (ssRNA)
RNA: UGAGCCGGACUU
modifications: 2'-OMe all, PS all
B14: In3E3 3' truncation 16 nt (ssRNA)
RNA: CCAGUGAGCCGGACUU
modifications: 2'-OMe all, PS all
B15: cdca3_L_ATG-3 (ssRNA)
RNA: GAGAACCGACUCGGGUAGAG
modifications: 2'-OMe all, PS all
B16: RNA_In3E3 (ssRNA)
RNA: CCAGUGAGCCGGACUUGCCU
modifications: phosphodiester, unmodified ribose
B17: DNA_In3E3 (ssDNA)
DNA: CCAGUGAGCCGGACUUGCCU
modifications: deoxyuridine in place of T, phosphodiester
B18: In3E3 3' truncation 12 nt (ssRNA)
RNA: CCAGUGAGCCGG
modifications: 2'-OMe all, PS all
B19: cdca3_A_ATG-3 (ssRNA)
RNA: CUCUUGGCUGAGCCCAUCUC
modifications: 2'-OMe all, PS all
B20: In3E3 5' truncation 18 nt (ssRNA)
RNA: AGUGAGCCGGACUUGCCU
modifications: 2'-OMe all, PS all
B21: In3E3 5' truncation 12 nt (ssRNA)
RNA: CCGGACUUGCCU
modifications: 2'-OMe all, PS all
B22: In3E3 3' truncation 8 nt (ssRNA)
RNA: CCAGUGAG
modifications: 2'-OMe all, PS all [2'-OMe at 1-8 (all); PS at all linkages]
B23: Open_A_1 (ssRNA)
RNA: GUGCAUGGAAUCACGGAGUG
modifications: 2'-OMe all, PS all
B24: In3E3 3' truncation 15 nt (ssRNA)
RNA: CCAGUGAGCCGGACU
modifications: 2'-OMe all, PS all
B25: In3E3 both-end truncation 18 nt (ssRNA)
RNA: CAGUGAGCCGGACUUGCC
modifications: 2'-OMe all, PS all
B26: In3E3 3' truncation 10 nt (ssRNA)
RNA: CCAGUGAGCC
modifications: 2'-OMe all, PS all
B27: In3E3 3' truncation 14 nt (ssRNA)
RNA: CCAGUGAGCCGGAC
modifications: 2'-OMe all, PS all
B28: ASO_E3E4 (ssRNA)
RNA: CUGAAGCGUACCCUUUGGUG
modifications: 2'-OMe all, PS all
B29: Neg_C (ssRNA)
RNA: CUCAUUCCUACCGACACCCC
modifications: 2'-OMe all, PS all
B30: In3E3 both-end truncation 14 nt (ssRNA)
RNA: GUGAGCCGGACUUG
modifications: 2'-OMe all, PS all

Experiments:
hSSB1 [1] = target: T1, hSSB1 (Homo sapiens, UniProt Q9BQ15 Q9BQ15:1-211); assay: SPR; LSA_In3E3 = 1
T1 sequence (Q9BQ15 whole entry, one chain of several): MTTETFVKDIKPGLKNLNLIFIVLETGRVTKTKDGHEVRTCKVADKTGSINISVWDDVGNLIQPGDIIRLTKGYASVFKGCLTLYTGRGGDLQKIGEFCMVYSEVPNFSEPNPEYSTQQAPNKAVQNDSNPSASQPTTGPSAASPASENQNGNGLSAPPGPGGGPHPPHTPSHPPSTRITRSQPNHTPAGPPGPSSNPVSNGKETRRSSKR

THOC4 (ALYREF) [2] = target: T2, THOC4 (ALYREF) (UniProt Q86V81 Q86V81:2-257); assay: SPR; LSA_In3E3 = 1
mSSB1 [3] = target: T3, mSSB1 (Mus musculus, UniProt Q8R2Y9 Q8R2Y9:1-212); assay: EMSA; 1 mM EDTA, 37C; details: label: FAM
T3 sequence (Q8R2Y9 whole entry, one chain of several): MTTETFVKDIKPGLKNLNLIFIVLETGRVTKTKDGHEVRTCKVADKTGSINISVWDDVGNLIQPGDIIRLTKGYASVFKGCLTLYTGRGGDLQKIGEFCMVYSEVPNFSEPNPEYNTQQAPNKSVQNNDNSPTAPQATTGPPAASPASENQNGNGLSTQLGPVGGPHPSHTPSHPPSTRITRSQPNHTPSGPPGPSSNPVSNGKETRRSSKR
Experimental: (§1) FAM-labeled non-targeting PS compound, LSA_In3E3, PD compounds, DNA_In3E3 and RNA_In3E3, and a negative control oligomer compound, NEGC, were incubated separately with purified mouse SSB1 (mSSB1), hSSB1 and human SSB2 (hSSB2) proteins.

THOC4 (ALYREF) [4] = target: T2, THOC4 (ALYREF); assay: EMSA; 10 mM Tris pH 8.0, 100 mM NaCl, 1 mM EDTA, 37C
hSSB2 = hSSB2 (Homo sapiens, UniProt Q96AH0 Q96AH0:1-204); assay: EMSA; Tris pH 7.5, 100 mM KCl, 1 mM EDTA, 37C; single EMSA; details: label: FAM
Sequence of hSSB2 (Q96AH0 whole entry, one chain of several): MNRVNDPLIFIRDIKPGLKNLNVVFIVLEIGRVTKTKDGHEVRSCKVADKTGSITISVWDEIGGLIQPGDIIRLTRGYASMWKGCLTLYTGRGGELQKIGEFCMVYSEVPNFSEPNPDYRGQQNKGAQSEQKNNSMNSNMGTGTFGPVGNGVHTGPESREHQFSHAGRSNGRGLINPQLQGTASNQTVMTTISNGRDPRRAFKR
Experimental: FIG. 16 is a graphic representation of a single EMSA showing increasing concentrations of hSSB2 protein vs. 5 nM of FAM-labeled LSA_In3E3 sequence or negative control sequence (Neg_C) in phosphorothioate chemistry. Graphs represent the fraction of oligo bound to the protein. Purified protein was incubated with 5 nM of labeled oligo for 15 min at 37° C. in a buffer consisting of 10 mM Tris-HCl (pH7.5), 100 mM KCl, 0.01% IGEPAL, 1 mM EDTA and 50 ng/μL BSA.
as §1

hSSB1 [5] = target: T1, hSSB1; assay: EMSA; 10 mM Tris, 1 mM EDTA, 37C; Table 7 gives 3 nM; details: label: FAM
Experimental: (§2) FIG. 15 is a graphic representation of hSSB1 EMSAs showing increasing concentrations of hSSB1 protein vs. 5 nM of FAM-labeled LSA_In3E3 sequence in either phosphorothioate (PS) or phosphodiester (PD) chemistry, or negative control sequence (Neg_C) in phosphorothioate chemistry. Graphs represent quantification of at least triplicate experiments, expressed as the fraction of oligomer compound bound to the protein. Purified protein was incubated with 5 nM of labeled oligomer compound for 15 min at 37° C. in a buffer consisting of 10 mM Tris-HCl (pH7.5), 100 mM KCl, 0.01% IGEPAL, 1 mM EDTA and 50 ng/μL BSA.
as §1

hSSB1 [6] = target: T1, hSSB1; assay: EMSA; details: label: FAM
Experimental: as §2, §1

mSSB1 [7] = target: T3, mSSB1; assay: EMSA; details: label: FAM
Experimental: as §1

hSSB1 [8] = target: T1, hSSB1; assay: EMSA; 10 mM Tris, 1 mM EDTA, 37C; Table 7 gives 9 nM; details: label: FAM
Experimental: as §2, §1

| Binder | binding signal (hSSB1 [1]) [normalized Rmax] | binding signal (THOC4 (ALYREF) [2]) [normalized Rmax] | also measured |
| --- | --- | --- | --- |
| B1 | 0.3 | 0.09 | – |
| B2 | 0.07 | -0.07 | – |
| B3 | – | – | Kd (mSSB1 [3]): 4.13 nM; Kd (THOC4 (ALYREF) [4]): 81 nM; binding result (hSSB2): binds; Kd (hSSB1 [5]): 3.29 nM |
| B4 | 0.92 | 0.87 | – |
| B5 | 0.83 | 0.23 | – |
| B6 | 0.53 | 0.08 | – |
| B7 | 0.48 | 0.24 | – |
| B8 | 0.8 | – | Kd (THOC4 (ALYREF) [4]): 104 nM |
| B9 | 0.46 | – | Kd (THOC4 (ALYREF) [4]): 125 nM |
| B10 | 0.4 | 0.45 | – |
| B11 | 0.71 | 0.68 | – |
| B12 | 0.07 | -0.01 | – |
| B13 | 0.2 | 0.08 | – |
| B14 | 0.4 | 0.38 | – |
| B15 | 1.09 | – | Kd (THOC4 (ALYREF) [4]): 58 nM |
| B16 | – | – | Kd (hSSB1 [6]): 137 nM |
| B17 | – | – | Kd (hSSB1 [6]): 13.5 nM; Kd (mSSB1 [7]): 13.1 nM |
| B18 | 0.24 | 0 | – |
| B19 | 1.3 | – | Kd (THOC4 (ALYREF) [4]): 134 nM |
| B20 | 0.84 | 0.84 | – |
| B21 | 0.13 | 0.07 | – |
| B22 | 0.09 | -0.05 | – |
| B23 | – | – | Kd (THOC4 (ALYREF) [4]): 52 nM |
| B24 | 0.36 | -0.09 | – |
| B25 | 0.91 | 0.96 | – |
| B26 | 0.11 | -0.01 | – |
| B27 | 0.35 | 0.08 | – |
| B28 | 0.75 | – | Kd (THOC4 (ALYREF) [4]): 70 nM |
| B29 | – | – | Kd (THOC4 (ALYREF) [4]): 150 nM; Kd (hSSB1 [8]): 10 nM; Kd (mSSB1 [7]): 15.4 nM |
| B30 | 0.45 | 0.48 | – |
